Columns and labels:
[1] = target: H7N9 HA (A/Shanghai/1/2013) (Influenza A virus A/Shanghai/1/2013 …, strain)
[2] = target: T1, H1N1 HA (A/California/04/2009) (Influenza A virus A/California/04/2009 …, UniProt C3W5S1, strain)
[3] = target: T1, H1N1 HA (A/California/04/2009); test: SPR; conditions: both partners purified

Binder	binding result [1]	other results
H7-Ab14 (antibody, V domains shown) VH: EVQLVESGPRLVKPSGTLSLTCAVSDDSISSAGYYWGWIRQSPGKGLEWIAAFFFGGSAYYNPSLKSRLTISTDTSENQFSLSLASVTAADTAVYYCAVIQLSTPPVPFEIWGQGTLVTVSS VL: EIVMTQSPGTLSLSPGERATLSCRASQIISSNYLAWYQQKPGQAPRLLIFGASSRATGTPDRFSGSGSGTDFTLTISRLEPEDFVVYYCHQYDSSWYTFGQGTKVEIK	binds	
H7-Ab8 (antibody, V domains shown) VH: EVQLVQSGGGVVLPGRSLRLSCAASGFTFSNHGMHWVRQAPGKGLEWMAVIWSDGTTKYYADSVKGRFTISRDNSKNTVYLQMNSLRAEDTAVYYCAREVIYSGYFFDHWGQGTTVTVSS VL: not shown	binds	
H7-Ab7 (antibody, V domains shown) VH: QVQLQESGGGLVQPGGSLRLSCAASGFTFSAYAMNWVRQAPGKGLDWVSGIGGNGGITKYADSVKGRFTISRDNSKKTLYLQMNSLTAEDTAVYYCAKDASWDVRGWFDPWGQGTLVTVSS VL: not shown	binds	
H7-Ab3 (antibody, V domains shown) VH: EVQLVESGAEVKKPGSSVKVSCKTSGGTFNIYAINWVRQAPGQGLEWMGMIIPIFGSPKTAREFQDRLTIDADTSTSTAYMELSNLTSEDTATYFCSRVADDYDFWSPNKFWGQGTLVTVSS VL: DIQLTQSPSTLSASVGDTVTITCRASQSVNSWLAWYQQKPGKAPKLLIYKTFNLETGVPSRFSATGSGTEFTLTISRLQPDDFATYYCQQYNSNSHFGQGTKVEIK	binds	
H1-Ab53 (antibody, V domains shown) VH: EVQLVESGLRLVKPSETLSVTCTVSGGSMSTTSYYWGWIRQPPGKALEWIGSIYYDGNSYYKPSLRSRFTMLVDTSKNQFSLKLTSVTAADTAVYYCARMSYMDYDFSTGYWNWFDPWGQGTLVTVSS VL: QSVLTQPASVSGSPGQSITISCTGTRRDVGSYRLVSWYQHHPGKAPKLMIYEGTKRPSGVSDRFSGSKSGNTASIIISGFQAEDEADYYCCSYAGSSTWVFGGGTRVTVL		binding result [2]: binds
H7-Ab5 (antibody, V domains shown) VH: EVQLVESGAEMRKPGSSVKVSCKASGGTFNTYGISWVRQAPGQGLEWMGGIIPMFGTENHAQKFQGRVTITADKSTSIAYMELSSLTSEDTAVYYCARAPVVGSRNVYYYHGLDVWGQGTTVTVSS VL: SYELTQPPSVSVSPGQTARITCSGDALPKRYAFWYQQKPGQAPVLVIYKDTERPSGIPERFSGSRSGTTVTLTISGVQAEDEGDYYCQSADSSDPCLFGGGTKLTVL	binds	
H7-Ab1 (antibody, V domains shown) VH: EVQLVQSGAEVKKPGASVKVSCKTSYAMHWVRQAPGQRLEWMGWINAGNGYTKYSPKFQGRVTFTWDTSASTAYMELNSLRSEDTAVYYCAHGSGSYLNWFDPWGQGTLVTVSS VL: QSVLTQPASVSGSPGQSITISCTGTSSDVGGYNYVSWYQQHPGKAPKLMIYEVSNRPSGVSNRFSGSKSGNTASLTISGLQAEDEVDYYCTSYTSSSTLVAFGRGTKLTVL	binds	
H7-Ab13 (antibody, V domains shown) VH: EVQLVESGPGLVKPSQTLSLTCTVSDGTIGSDAYHWSWIRQYPGRGLEWIGSFYYSGNTYYNPSLKSRLTISVDTSKNQFSLKLNSVTAADTAVYYCARNSAYCTDTRCYNGGGWFHPWGQGTTVTVSS VL: DIVMTQSPGTLSLSPGERATLSCRASQSVSSTYLAWYQQKPGQAPRFLIYGASRRATGIPDRFSGSGSGTDFTLTISRVEPEDFTVYYCQQYGSSPITFGQGTRLEIK	binds	
H7-Ab10 (antibody, V domains shown) VH: WVQLVESGGGLVQPGGSLRLSCVDSGSTFSKYWMTWVRQAPGKGLEWVANIKEDGSKEYYMESLKGRFTISRDNAKNSLYLQISTLRAEDTAVYYCATSSGWRFEVWGRGTTVTVSS VL: QSALTQPPSASGSPGQSVTISCTGTSSDVGTYNYVSWYQQQADKAPKLIIFDVDKRPSGVPDRFSGSKSGNTASLTVSGLQADDEADYYCSSYAGTKHWIFGGGTKLTVL	binds	
H1-Ab61 (antibody, V domains shown) VH: EVQLLESGAEVKKPGESLKISCKTSGYTFPRYWVGWVRQMPGKGLEWMGFIYPGDATTRYSPSFQGQVTISADKSINTAYLHWSSLKASDTAVYFCARHPGDKSFYYYGLDVWGQGTTVTVSS VL: AIRMTQSPSTLSASVGDRVTITCRASQSIRSWLAWYQQKPGKAPKLLISKASSLQSGVPSRFSGTGSGTEFTLTISSLQPDDFATYYCQQYNSDSITFGQGTRLEIK		binding result [2]: binds
H1-Ab51 (antibody, V domains shown) VH: EVQLVESGPGLVKPSETLSLTCTVSGGSISSNTYYWGWIRQPPGKGLEWIETIYYSGSTYYNPSLKSRVTISVDTSKNQFSLKLSSVTAADSAVYYCARSYCGGGCNFDAFDIWGQGTVVTVSS VL: QSVLTQPASVSGSPGQSITISCTGSSSDVGGYNYVSWYQQHPGKAPKLMIFDVSNRPSGVSNRFSGSKSGNTASLTISGLQAEDEADYYCSSYTSNITLVFGGGTKLTVL		binding result [2]: binds
H1-Ab19 (antibody, V domains shown, IgG1; source: HEK293T, transfected with heavy and light chain plasmids; purified mAbs) VH: EVQLVESGGGLVKPGGSLRLSCAASGFTFSSYSMHWVRQAPGKGLEWVSSISSIGTYIYYADSVKGRFTISRDNAKNSLYLQLNSLRVEDTAVFYCATGVTSSYGGYSGYFDSWGQGTLVTVSS VL: DIVMTQSPSSLSASVGDRVTITCQASQDISKHLNWYQQKPGKAPKLLIYDASNLETGVPSRFSGSGSGTDFSFTISSLQPEDIATYYCQQYDNPFLTFGGGTKVEIK		Kd [3]: 1 pM
H7-Ab6 (antibody, V domains shown) VH: EVQLVESGGGLVKPGGSLRLSCTASGFTFSDYPMSWVRQAPGKGLEWLSSISTGSTYIYYADSVKGRFTISRDNAQNSMYLQMNSLRAEDTAIYYCARGAKVELALGWYFDLWGRGTLVTVSS VL: QSVLTQPPSVSAAPGQKVTISCSGSNSNIGNNFVSWYQQLPGTAPKLLIYDNNKRPSGIPDRVSGSKSGTSATLGITGLQTGDEADYYCGTWDNRLSAAVFGGGTKLTVL	binds	
H7-Ab4 (antibody, V domains shown) VH: EVQLVESGAEVKKPGSSVKVSCKASGGTFSSHGINWVRQAPGQRLEWMGGINPISGTPHYAQKFQGRVTITADESTTTSYMELSSLRSEDTAVYYCARIHRAGLEANYWGQGTLVTVSS VL: not shown	binds	
H7-Ab12 (antibody, V domains shown) VH: EVQLVESGPGLVKPAQTLSLTCTVSGGSISSGGDYWSWIRQHPGKGLEWIGYIYYSGNAFYNPSLKSRVSMSVDTSKNQFSLKLSSVSAADTAVYYCARVRGVYFWGQGTLATVSS VL: EIVMTQSPGTLSLSPGERATLSCRASQSVSSSHLAWYQQKPGQAPRLLIYGASSRATGIPDRFSGSGSGTDFTLTISRLEPEDFAVYYCQQYGSSLPPWTFGQGTKVEIK	binds	
H7-Ab11 (antibody, V domains shown) VH: QVQLQESGPRLVKPSQTLSLTCAVSGGSITSNDYNWSWIRQHPGKGLEWIGYIYHSGNTFYNPALESRVSMSVDTSKNQFSLRLTSVTAADTAVYFCARTQRSTVAHIVGPVQGRFHFDYWSQGTLVTVSS VL: DIQMTQSPGTLSLSPGERVTLSCRASRSVSPYYLAWYQQKPGQAPRLLIYGSSTRATGIPDRFSGSGSGTDFTLTINKLEPEDFAIYYCQQYGRSSGFVFGPGTKVDIK	binds	
